According to US20160311913A1 (Amgen, published 2016):

Molecular target: human CGRP receptor (human, UniProt Q16602 23-461; O60894 27-148)
Experiment: cell-based or functional assay

Sequence of human CGRP receptor (Q16602 23-461 limits assumed, chain 1 of 2): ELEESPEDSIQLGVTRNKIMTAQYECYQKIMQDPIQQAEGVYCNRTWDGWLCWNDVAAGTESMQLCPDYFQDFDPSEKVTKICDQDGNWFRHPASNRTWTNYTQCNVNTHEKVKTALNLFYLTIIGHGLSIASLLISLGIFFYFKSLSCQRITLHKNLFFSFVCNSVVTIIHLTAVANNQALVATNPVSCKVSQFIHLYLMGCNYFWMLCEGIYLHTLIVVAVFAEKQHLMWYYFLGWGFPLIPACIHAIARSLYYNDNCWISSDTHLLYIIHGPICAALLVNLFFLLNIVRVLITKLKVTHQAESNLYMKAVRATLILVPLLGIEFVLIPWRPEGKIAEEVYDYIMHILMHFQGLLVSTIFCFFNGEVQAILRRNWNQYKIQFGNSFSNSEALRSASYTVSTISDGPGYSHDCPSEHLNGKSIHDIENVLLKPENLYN
Sequence of human CGRP receptor (O60894 27-148 limits assumed, chain 2 of 2): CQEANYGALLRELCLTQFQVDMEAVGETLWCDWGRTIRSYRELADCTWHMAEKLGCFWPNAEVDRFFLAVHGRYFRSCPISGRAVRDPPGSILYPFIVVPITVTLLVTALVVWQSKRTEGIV

serum AMG 334 concentration associated with the half maximal effect (EC50) on capsaicin-induced DBF: 0.286 µg/mL
serum AMG 334 concentration for 50% of maximal inhibition of capsaicin-induced dermal blood flow (EC50): 0.218 µg/mL
B1: AMG 334 (antibody, human IgG2, lambda, V domains shown)
VH: QVQLVESGGGVVQPGRSLRLSCAASGFTFSSFGMHWVRQAPGKGLEWVAVISFDGSIKYSVDSVKGRFTISRDNSKNTLFLQMNSLRAEDTAVYYCARDRLNYYDSSGYYHYKYYGMAVWGQGTTVTVSS
VL: QSVLTQPPSVSAAPGQKVTISCSGSSSNIGNNYVSWYQQLPGTAPKLLIYDNNKRPSGIPDRFSGSKSGTSTTLGITGLQTGDEADYYCGTWDSRLSAVVFGGGTKLTVLG
